Experimental data from paper PMC11194070, “Despite the odds: formation of the SARS-CoV-2 methylation complex” (Nucleic Acids Research, 2024).

Molecular target: T1, nsp10/16 complex (heterodimer of SARS-CoV-2 nsp10 and nsp16) (SARS-CoV-2, UniProt P0DTD1)
T1 construct: also called nsp10/nsp16; nsp10/16 heterodimer
Assay: MST
Conditions: both partners purified

B1: nsp14ExoN, nsp14 without the methyltransferase domain but retaining the exonuclease activity (domain or fragment)
chain: AENVTGLFKDCSKVITGLHPTQAPTHLSVDTKFKTEGLCVDIPGIPKDMTYRRLISMMGFKMNYQVNGYPNMFITREEAIRHVRAWIGFDVEGCHATREAVGTNLPLQLGFSTGVNLVAVPTGYVDTPNNTDFSRVSAKPPPGDQFKHLIPLMYKGLPWNVVRIKIVQMLSDTLKNLSDRVVFVLWAHGFELTSMKYFVKIGPERTCCLCDRRATCFSTASDTYACWHHSIGFDYVYNPFMIDVQQWGFTGNLQSNHDLYCQVHGNAHVASCDAIMTRCLAVHECFVKRVDWTIE
- Kd: 110 ± 130 nM
